Measurements taken from patent US20260217835A1 (published 2026).

Columns and labels:
[1] = target: the molecule itself; test: SEC area ratio of heavy chain homodimer; co-expressed with Fc fragment SEQ ID NO 62
[2] = target: the molecule itself; test: SEC area ratio of heavy chain homodimer; co-expressed with Fc fragment SEQ ID NO 102
[3] = target: T1, Fc fragment below the hinge region containing no modification (WT-Fc fragment, human IgG1, SEQ ID NO: 62) (human, UniProt P01857 104-328 = IgG part); test: SEC peak area ratio after coexpression of full-length heavy chain, light chain and Fc fragment
T1 construct: Unmodified IgG1 Fc fragment coexpressed with each modified full-length heavy chain and the light chain; Two copies in the Fc homodimer, one in the heteromultimer

[4] = target: the molecule itself; test: SEC peak area ratio; full-length heavy chain, light chain and VHH-Fc coexpressed in Expi293F, affinity purified

B1: IgG2 full-length heavy chain with K392L/T394W/F405A/Y407V (SEQ ID NO: 90) with light chain (SEQ ID NO: 61) (antibody)
heavy: QVQLQESGPGLVRPSQTLSLTCTVSGYSITSDHAWSWVRQPPGRGLEWIGYISYSGITTYNPSLKSRVTMLRDTSKNQFSLRLSSVTAADTAVYYCARSLARTTAMDYWGQGSLVTVSSASTKGPSVFPLAPCSRSTSESTAALGCLVKDYFPEPVTVSWNSGALTSGVHTFPAVLQSSGLYSLSSVVTVPSSNFGTQTYTCNVDHKPSNTKVDKTVERKCCVECPPCPAPPVAGPSVFLFPPKPKDTLMISRTPEVTCVVVDVSHEDPEVQFNWYVDGVEVHNAKTKPREEQFNSTFRVVSVLTVVHQDWLNGKEYKCKVSNKGLPAPIEKTISKTKGQPREPQVYTLPPSREEMTKNQVSLTCLVKGFYPSDIAVEWESNGQPENNYLTWPPMLDSDGSFALVSKLTVDKSRWQQGNVFSCSVMHEALHNHYTQKSLSLSP
light: not shown
With B1 the “Homo full-length heavy chain (%)” value [1] was 48.8% and the “Homo full-length heavy chain (%)” value [2] was 66.3%.

B2: IgG2 full-length heavy chain with T394W/F405A (SEQ ID NO: 87) with light chain (SEQ ID NO: 61) (antibody)
heavy: QVQLQESGPGLVRPSQTLSLTCTVSGYSITSDHAWSWVRQPPGRGLEWIGYISYSGITTYNPSLKSRVTMLRDTSKNQFSLRLSSVTAADTAVYYCARSLARTTAMDYWGQGSLVTVSSASTKGPSVFPLAPCSRSTSESTAALGCLVKDYFPEPVTVSWNSGALTSGVHTFPAVLQSSGLYSLSSVVTVPSSNFGTQTYTCNVDHKPSNTKVDKTVERKCCVECPPCPAPPVAGPSVFLFPPKPKDTLMISRTPEVTCVVVDVSHEDPEVQFNWYVDGVEVHNAKTKPREEQFNSTFRVVSVLTVVHQDWLNGKEYKCKVSNKGLPAPIEKTISKTKGQPREPQVYTLPPSREEMTKNQVSLTCLVKGFYPSDIAVEWESNGQPENNYKTWPPMLDSDGSFALYSKLTVDKSRWQQGNVFSCSVMHEALHNHYTQKSLSLSP
light: not shown
With B2 the “Homo full-length heavy chain (%)” value [1] was 58.9% and the “Homo full-length heavy chain (%)” value [2] was 66.7%.

B3: IgG2 full-length heavy chain with T366W/L368A/Y407V (SEQ ID NO: 88) with light chain (SEQ ID NO: 61) (antibody)
heavy: QVQLQESGPGLVRPSQTLSLTCTVSGYSITSDHAWSWVRQPPGRGLEWIGYISYSGITTYNPSLKSRVTMLRDTSKNQFSLRLSSVTAADTAVYYCARSLARTTAMDYWGQGSLVTVSSASTKGPSVFPLAPCSRSTSESTAALGCLVKDYFPEPVTVSWNSGALTSGVHTFPAVLQSSGLYSLSSVVTVPSSNFGTQTYTCNVDHKPSNTKVDKTVERKCCVECPPCPAPPVAGPSVFLFPPKPKDTLMISRTPEVTCVVVDVSHEDPEVQFNWYVDGVEVHNAKTKPREEQFNSTFRVVSVLTVVHQDWLNGKEYKCKVSNKGLPAPIEKTISKTKGQPREPQVYTLPPSREEMTKNQVSLWCAVKGFYPSDIAVEWESNGQPENNYKTTPPMLDSDGSFFLVSKLTVDKSRWQQGNVFSCSVMHEALHNHYTQKSLSLSP
light: not shown
B3 was tested, and the “Homo full-length heavy chain (%)” value [1] was 48.2% and the “Homo full-length heavy chain (%)” value [2] was 66.6%.

B4: IgG2 full-length heavy chain with Q347R/K360E/D399V/F405T/K409W (SEQ ID NO: 89) with light chain (SEQ ID NO: 61) (antibody)
heavy: QVQLQESGPGLVRPSQTLSLTCTVSGYSITSDHAWSWVRQPPGRGLEWIGYISYSGITTYNPSLKSRVTMLRDTSKNQFSLRLSSVTAADTAVYYCARSLARTTAMDYWGQGSLVTVSSASTKGPSVFPLAPCSRSTSESTAALGCLVKDYFPEPVTVSWNSGALTSGVHTFPAVLQSSGLYSLSSVVTVPSSNFGTQTYTCNVDHKPSNTKVDKTVERKCCVECPPCPAPPVAGPSVFLFPPKPKDTLMISRTPEVTCVVVDVSHEDPEVQFNWYVDGVEVHNAKTKPREEQFNSTFRVVSVLTVVHQDWLNGKEYKCKVSNKGLPAPIEKTISKTKGQPREPRVYTLPPSREEMTENQVSLTCLVKGFYPSDIAVEWESNGQPENNYKTTPPMLVSDGSFTLYSWLTVDKSRWQQGNVFSCSVMHEALHNHYTQKSLSLSP
light: not shown
With B4 the “Homo full-length heavy chain (%)” value [1] was 55.9% and the “Homo full-length heavy chain (%)” value [2] was 66.8%.

B5: Full-length human IgG1 heavy chain with T366Y/L368T/Y407A (SEQ ID NO: 555) expressed with light chain SEQ ID NO: 61 (Sample No. 759) (antibody)
heavy: QVQLQESGPGLVRPSQTLSLTCTVSGYSITSDHAWSWVRQPPGRGLEWIGYISYSGITTYNPSLKSRVTMLRDTSKNQFSLRLSSVTAADTAVYYCARSLARTTAMDYWGQGSLVTVSSASTKGPSVFPLAPSSKSTSGGTAALGCLVKDYFPEPVTVSWNSGALTSGVHTFPAVLQSSGLYSLSSVVTVPSSSLGTQTYICNVNHKPSNTKVDKRVEPKSCDKTHTCPPCPAPELLGGPSVFLFPPKPKDTLMISRTPEVTCVVVDVSHEDPEVKFNWYVDGVEVHNAKTKPREEQYNSTYRVVSVLTVLHQDWLNGKEYKCKVSNKALPAPIEKTISKAKGQPREPQVYTLPPSREEMTKNQVSLYCTVKGFYPSDIAVEWESNGQPENNYKTTPPVLDSDGSFFLASKLTVDKSRWQQGNVFSCSVMHEALHNHYTQKSLSLSP
light: not shown
notes: also called Sample No. 1145
B5 was tested, and the “Heteromultimer (%)” value [3] was 3.6%.

B6: VHH-Fc with T350V/L351Y/T366L/K392L/T394W/F405A/Y407V (SEQ ID NO: 593) (Fc fusion)
chain: EVQLVESGGGLVQPGGSLRLSCAASGSISSVDVMSWYRQAPGKQRELVAFITDRGRTNYKVSVKGRFTISRDNSKNMVYLQMNSLKPEDTADYLCRAESRTSWSSPSPLDVWGRGTQVTVSSDKTHTCPPCPAPELLGGPSVFLFPPKPKDTLMISRTPEVTCVVVDVSHEDPEVKFNWYVDGVEVHNAKTKPREEQYNSTYRVVSVLTVLHQDWLNGKEYKCKVSNKALPAPIEKTISKAKGQPREPQVYVYPPSREEMTKNQVSLLCLVKGFYPSDIAVEWESNGQPENNYLTWPPVLDSDGSFALVSKLTVDKSRWQQGNVFSCSVMHEALHNHYTQKSLSLSP
For B6, the “Homo Fc fragment (%)” value [4] was 31.8%.

B7: IgG4 full-length heavy chain with Q347R/K360E/D399V/F405T/R409W (SEQ ID NO: 95) with light chain (SEQ ID NO: 61) (antibody)
heavy: QVQLQESGPGLVRPSQTLSLTCTVSGYSITSDHAWSWVRQPPGRGLEWIGYISYSGITTYNPSLKSRVTMLRDTSKNQFSLRLSSVTAADTAVYYCARSLARTTAMDYWGQGSLVTVSSASTKGPSVFPLAPCSRSTSESTAALGCLVKDYFPEPVTVSWNSGALTSGVHTFPAVLQSSGLYSLSSVVTVPSSSLGTKTYTCNVDHKPSNTKVDKRVESKYGPPCPPCPAPEFLGGPSVFLFPPKPKDTLMISRTPEVTCVVVDVSQEDPEVQFNWYVDGVEVHNAKTKPREEQFNSTYRVVSVLTVLHQDWLNGKEYKCKVSNKGLPSSIEKTISKAKGQPREPRVYTLPPSQEEMTENQVSLTCLVKGFYPSDIAVEWESNGQPENNYKTTPPVLVSDGSFTLYSWLTVDKSRWQEGNVFSCSVMHEALHNHYTQKSLSLSL
light: not shown
B7 was tested, and the “Homo full-length heavy chain (%)” value [1] was 58.6% and the “Homo full-length heavy chain (%)” value [2] was 66.8%.

B8: IgG4 full-length heavy chain with T366W/L368A/Y407V (SEQ ID NO: 94) with light chain (SEQ ID NO: 61) (antibody)
heavy: QVQLQESGPGLVRPSQTLSLTCTVSGYSITSDHAWSWVRQPPGRGLEWIGYISYSGITTYNPSLKSRVTMLRDTSKNQFSLRLSSVTAADTAVYYCARSLARTTAMDYWGQGSLVTVSSASTKGPSVFPLAPCSRSTSESTAALGCLVKDYFPEPVTVSWNSGALTSGVHTFPAVLQSSGLYSLSSVVTVPSSSLGTKTYTCNVDHKPSNTKVDKRVESKYGPPCPPCPAPEFLGGPSVFLFPPKPKDTLMISRTPEVTCVVVDVSQEDPEVQFNWYVDGVEVHNAKTKPREEQFNSTYRVVSVLTVLHQDWLNGKEYKCKVSNKGLPSSIEKTISKAKGQPREPQVYTLPPSQEEMTKNQVSLWCAVKGFYPSDIAVEWESNGQPENNYKTTPPVLDSDGSFFLVSRLTVDKSRWQEGNVFSCSVMHEALHNHYTQKSLSLSL
light: not shown
With B8 the “Homo full-length heavy chain (%)” value [1] was 87.3% and the “Homo full-length heavy chain (%)” value [2] was 65.3%.
